# Source: patent publication US20150104459A1 (published 2015)
# Residue numbers refer to the chain shown, from its start.
# B1: TCN-538 (3206_O17) (antibody, V domains shown)
# VH: QITLKESGPTLVKPTQTLTLTCVFSGFSLSITGVRVGWIRQPPGKALEWLALISWDDEKHYSPSLQSRLTITKDTSKNQVVLTMTNLDPVDTATYYCARSTDRGHVLRYFGWMLPGDAFDVWGQGTMVTVSS
# VL: DIVMTQSPDFLPVSLGERATINCKSSQRVLYSSNNKNYLAWYQLKPGQPPKLIIYWASTRESGVPDRFSGSGSGTEFTLTISSLQAEDVAVYYCQQYYSRPYTFGQGTKLEIK
# B2: TCN-553 (5261_C18) (antibody, V domains shown)
# VH: QVQVVQSGTEVKKPGSSVKVSCQTSGGRFMSYAITWVRQAPGQGLEWMGGIVPVFGTANYAQKFQGRVTITTDDSTRTAYMELSSLRSEDTAVYYCGFRYGSGYGFDSWGQGTLVTVSS
# VL: EIVLTQSPGTLSLSPGERATLSCRASQSVSSSYLAWYQKKPGQAPRLLIYGASTRATGIPDRFTGSGSGTDFTLSISRLEPEDFAVYYCQHFGTSVFTFGGGTKVEIK
# B3: TCN-545 (5082_I15) (antibody, V domains shown)
# VH: QVQLQQWGAGLLKPSETLSLSCAVFGGSFSDYYWTWIRQPPGKGLEWIGEIKHSGRTNYNPSLESRVTISVDTSKNQFSLKLSSVTAADTAIYYCARGTDPDTEGYCRSGSCSAFDFWGQGTLVTVSS
# VL: EIVLTQSPGTLSLSPGERATLSCRASHFVNYRSLAWYQQTPGQVPRLLIYGASTRATGIPDRFSGSGSGTDFTLTISRLEPEDFAVYFCQQYGGSPRYTFGQGTRLEIK
# B4: TCN-560 (5084_P10) (antibody, V domains shown)
# VH: EVQLVESGGGLVQPGGSLRLSCAASGFIFRNYWMSWVRQAPGKGLEWVANIKQDGREKYYVDSLRGRVNISRDNAENSLYLHMNSLRVEDTAVYFCARARMVVVTGDGFDVWGHGTMVTVSS
# VL: DIQMTQSPSSLSASVGDRVTITCRASQNIKRYFNWYQQKPGKAPKLLIYAASNLENGVPSRFSGSGSGTDFTLTISSLQPEDFATYYCQQSFSKSWTFGQGTNVDIK
# B5: TCN-534 (5249_B02) (antibody, V domains shown)
# VH: QVQLVQSGAEVKKPGSSVKVSCRESGGTFNGYTITWVRQAPGQGLEWMGGIIPMMGTVNYAQKLQGRVTITTDYFTKTAYMDLNNLRSEDTAMYYCVKIRYTGQQLLWGQGTLVTVSS
# VL: DIQMTQSPSTLSASIGDRVTITCRASQSIASWLAWYQQKPGKAPKLLIYEAVNLESGVPSRFSGSGSGTDFTLTISSLQPDDFATYFCQHYGTISQTFGGGTKVEIK
# B6: TCN-539 (5056_A08) (antibody, V domains shown)
# VH: QVQLVESGGGVVQPGRSLRLSCAASEITFITYAMHWVRQAPGKGLEWVALISDDGSNKFYADSVKGRFTISRDNSKNTLYLQMNSLRAEDTAAYYCAREGVYFDSGTYRGYFDYWGQETLVTVSS
# VL: EIVLTQSPATLSLSPGERATLSCRASQSVSSYLAWYQQKPGQAPRLLIYDASNRATGIPARFSGSGSGTDFTLTISSLEPEDFAVYYCQQRSHWPPITFGQGTRLEIK
# B7: TCN-554 (5277_M05) (antibody, V domains shown)
# VH: QVQLVQSGADLKKPGASVKVSCKASGYTFTDYYIHWVRQAPGQGLEWMGWINPESGDTKYAQKFQGRVTMTRDTSITTAYMELGRLRSDDTAVYYCARDVSTTWSWFAPWGQGTLVTVSS
# VL: DIVMTQSPDSLAVSLGERATINCRSSQSIFHNSNNENYLAWYQQKPGQPPKLLIYWASTRESGVPDRFSGSGSGTDFTLTISSLQAEDVAVYFCQQYYNAPLTFGGGTKVEIK
# B8: TCN-554 (5277_M05) (antibody, V domains shown)
# VH: B7 VH
# VL: B7 VL
# B9: TCN-540 (5060_F05) (antibody, V domains shown)
# VH: QVQLVQSGGGVVQPGRSLRLSCAASGFTFSSYAMHWVRQAPGKGLEWVAIISYDGNDQYYTDSVKGRFTISRDSSKVYLQMHRLRPEDTAVYYCAKEFETSGYFHGSFDYWGQGILVTVSS
# VL: QSALTQPASVSGSPGQSITISCTGTSSDVGGYNYVSWYQQHPGKAPKLLIYEVTNWPSGVSNRFSGSKSGNTASLTISGLQAEDEADYYCSSYAGSSTWVFGGGTRVTVL
# B10: TCN-544 (5082_A19) (antibody, V domains shown)
# VH: QVQLQESGPGLVKPSETLSLTCTVSRGSIGHYFWSWIRQPPGKGLEWIGYISYSGSTKYNPSLRSRVTISVDTSKNQFSLNLNSVTATDTALYYCAREDYDILTGAGPGMEVWGQGTTVTVSS
# VL: QSMLTQPPSASGTPGQRVTISCSGSSSNIGSNTVNWFKHLPGTAPKLLIYRNDLRPSGVPDRFSGSKSGTSASLAISGLQSEDEADYYCATWDDSLNGFYVFGTGTKVTVL
# B11: TCN-543 (5081_G23) (antibody, V domains shown)
# VH: QVHLVQSGAEVRKPGDSVKVSCKTSGYTFSTYPVAWVRQVPGQGLEWMGWISTYNGNTNFAQNFQGRVTLTTDTTTNTAYMEVRSLKFDDTAVYYCARVEGSYRDFWNNQNRFDPWGQGTLVTVSS
# VL: SYVLTQPPSVSVAPGQTARISCGGSNIGGKSVHWYQQKPGQAPVLVVYDDSGRPSGIPERFSGSNSGDTATLTISRVEAGDEADYFCQVWDNFGGVFGTGTKVTVL
# B12: TCN-535 (5246_P19) (antibody, V domains shown)
# VH: QVQLVQSGSEVKKPGTSVKVSCTASGSVFTNYGISWVRQAPGQGLEWMGGIIPLFGAAKYAQKFQGRVTITADESTKTVYMELSRLTSKDTAIYFCAKAPRVYEYYFDQWGQGTPVTVSS
# VL: EIVLTQSPGTLSLSPGERATLSCRASQSVSSSQLAWYQQKPGQAPRLIIYGASTRATGIPDRFSGSGSGTDFTLTIGRLEPEDFAVFFCQQYSTSPPTFGQGTKVDFK
# B13: TCN-552 (5249_I23) (antibody, V domains shown)
# VH: QVQVVQSGAEVKKPGSSVRVSCQASGGTFMNYAIIWVRRAPGQGLEWMGGIIPVFPTPNYAQMFQGRVTISTDESRSTSFLELTNLRYEDTAVYYCARRIYHGGNSGFDFWGQGTLVTVSS
# VL: EIVLTQSPATLSLSPGERATLSCRASQSVGNYLAWYQQKPGQAPRLLIYDSSNRAPGIPARFSGSGSGTDFTLTISSLAPEDFAVYYCQQRSKWPPMYSFGHGTKLEIK
# B14: TCN-555 (5246_L16) (antibody, V domains shown)
# VH: QVQLVQSGAEVKRPGSSVKVSCTASGGIFRKNAISWVRQAPGQGLEWMGGIIAVFNTANYAQKFQNRVKITADESGNTAYMELSSLTSDDTAVYYCASHPKYFYGSGSYPDFWGQGTLVTVSS
# VL: QSALTQPRSVSGSPGQSITISCTGGSSDIGASNSVSWYQQHPGKAPKLVIFDVTERPSGVPHRFSGSKSGNTASLTVSGLQPDDEADYFCCAYGGKYLVVFGGGTKVTVL
# B15: TCN-563 (5237_B21) (antibody, V domains shown)
# VH: B14 VH with V5A, N66G, T87R
# VL: B14 VL with I18V, G25S, I29V, F51Y, D83E
# B16: TCN-537 (3194_D21) (antibody, V domains shown)
# VH: QVQLQQWGSGLLKPSETLSLTCAVYGGSFRDDYWTWIRQPPGKGLEWIGEINHSGRTNYNPSLKSRVTISVDTSLKQFSLKVISVTAADTAVYYCARGTSHVSRYFDWLPPTNWFDPWGQGTQVTVSS
# VL: DIVLTQSPGTLSLSPGERATLSCRASQSVSSSYLAWYQQKPGQAPRLVMYGAATRATGIPDRFSGSGSGPDFTLTISRLEPEDFAMYYCQQYGNSPITFGQGTRLEIK
# B17: TCN-536 (5095_N01) (antibody, V domains shown)
# VH: QVQLQQWGAGLLKPSETLSLTCAVYGGSFSVSGYYWSWIRQPPGRGLEWIGEISHGGSTNYNPSLKSRVTISVDTTKNQFSLRLSSVTAADTAVYYCARGTDPDTEVYCRVGNCAAFDYWGQGSLVTVSS
# VL: EIILAQSPGTLSLSPGERATLSCRASQFVSTRSLAWYQQRPGQAPRLLIYGASSRATGIPDRFSGSGSGTDFTLTISRLEPEDFAVYYCQHYGYSPRYAFGQGSKVEIK
# B18: TCN-523 (5248_A17) (antibody, V domains shown)
# VH: QVQLVQSGAEVKKPGSSVKVSCKASGGSFSNYAFSWVRQAPGQGLEWMGGTIPLLGTTNYAQKFQGRVTISADQFTSTAYMELGSLRSEDTAVYYCTRRKMTTAFDSWGQGTLVTVSS
# VL: QPVLTQPPSASASLGASVTLTCTLSSAYSNYKVDWYQQRPGKGPRFVMRVGTGGIVGSKGDGIPDRFSVLGSGLNRYLTIKNIQEEDESDYHCGADHGSGSNFVSPYVFGGGTKLTVL
# B19: TCN-551 (5243_D01) (antibody, V domains shown)
# VH: EVQLVQSGSEVKKPGESLKISCKGSGYSFSNYWIGWVRHMPGKGLEWMGIIYPGDSDTRYSPSFQGQVTMSADKSSSTVYLQWSSLKASDTAIYYCARRGGHSFGYGSGGDTHSEFDSWGQGTLVTVSS
# VL: QSVLTQSPSVSAAPGQKVTISCSGSDSNIGDYFVCWYQHLPGKPPQLLIYENNKRPSGIPDRFSGSKSGTSATLGITGIQTGDEADYYCATWDGSLSAWVFGGGTKLTVL
# B20: TCN-550 (5096_F06) (antibody, V domains shown)
# VH: QVQLQESGPGLVKPSETLSLTCTVSGASINSHYWSWIRQPPGKGLEWIGYVYYSGSTTYNPSLKSRVTLSVDTSKNQFSLNLSSVTAADTAFYYCARHPYDVLTGSGDWFDPWGQGTLVTVSS
# VL: SYVLTQAPSVSVAPGQTARITCGGNAIGSKKVHWYQHKAGQAPVLVVYDDTDRPSGIPERFSGSNSWSTATLTINRVEAGDEADYYCQVWDFTIDHVVFGGGTKLTVL
# How the values were obtained:
# Assay in all cases: cell-based or functional assay
# [1] = target: hemagglutinin (HA) of live influenza A/Solomon Islands/3/06 (H1N1) virus (influenza A virus A/Solomon …)
# [2] = target: hemagglutinin (HA) of live influenza A/Wisconsin/67/05 (H3N2) virus (influenza A virus A/Wisconsin/67/2005 …)
# [3] = target: Hemagglutinin of influenza A/Solomon Islands/3/06 (H1N1) on whole virions (Influenza A virus A/Solomon …)
Binder,% Neutralization [1],% Neutralization [2],% Neutralization [3]
B1,21%,0%,–
B2,–,–,87%
B3,88%,99%,–
B4,–,–,94%
B5,65.7%,0%,–
B6,–,99%,–
B7,–,100%,–
B8,–,–,42%
B9,3%,98%,–
B10,–,97%,–
B11,98%,73%,–
B12,88.6%,0%,–
B13,–,–,57%
B14,–,–,48%
B15,–,–,78%
B16,0%,0%,–
B17,81.6%,99.9%,–
B18,–,–,69%
B19,–,–,100%
B20,–,100%,–
